# Results reported in the supplement of paper PMC10567573.
# B1: DFFB (parent)
# chain: KLNCDPSRIYKPQTRLKRKQPVRK
# Variants of: B1
# Test: protein stability index of a GFP-peptide fusion (GPS, HEK-293T) (PSI 1-6); higher = more stable
# Conditions: c terminus: a fixed tail appended
# 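Also: lentivirally expressed fusions sorted by FACS into six bins by GFP to DsRed ratio, PSI derived from sequencing read proportions per bin multiplied by bin number.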
row,Variant,protein stability index
1,KLNCYPSRIYKPQTRLKRKQPVRK [D5Y],3.75
2,KLNCVPSRIYKPQTRLKRKQPVRK [D5V],2.98
3,KLNCGPSRIYKPQTRLKRKQPVRK [D5G],3.35
4,KLNCEPSRIYKPQTRLKRKQPVRK [D5E],2.9
5,KLNCDPSRIYKPQDRLKRKQPVRK [T14D],3.28
6,KLNCDPSRIYKPQGRLKRKQPVRK [T14G],3.49
7,KLNCDPSRIYKPQPRLKRKQPVRK [T14P],3.11
8,KLNCDPSRIYKPQHRLKRKQPVRK [T14H],3.77
9,KLNCDPSRIYKPQRRLKRKQPVRK [T14R],3.52
10,KLNCDPSRIYKPQNRLKRKQPVRK [T14N],3.58
11,KLNCDPSRIYKPQYRLKRKQPVRK [T14Y],3.49
12,KLNCDPSRIYKPQTRLKRCQPVRK [K19C],2.69
13,KLNCDPSRIYKPQTRLKRNQPVRK [K19N],3.54
14,KLNCDPSRIYKPQTRLKRLQPVRK [K19L],3.14
15,KLNCDPSRIYKPQTRLKRPQPVRK [K19P],3.25
16,KLNCDPSRIYKPQTRLKRGQPVRK [K19G],2.63
17,KLNCDPSRIYKPQTRLKRAQPVRK [K19A],3.66
18,KLNCDPSRIYKPQTRLKRVQPVRK [K19V],2.96
19,KLNCDPSRIYKPQTRLKRSQPVRK [K19S],2.78
20,KLNCDPSRIYKPQTRLKRFQPVRK [K19F],1.86
21,KLNCDPSRIYKPQTRLKRRQPVRK [K19R],3.9
22,KLNCDPSRIYKPHTRLKRKQPVRK [Q13H],4.35
23,KLNCDPSRIYKPRTRLKRKQPVRK [Q13R],3.08
24,KLNCDPSRIYKPITRLKRKQPVRK [Q13I],3.24

row,Variant,protein stability index
1,KLNCDPSRIYKPNTRLKRKQPVRK [Q13N],3
2,KLNCDPSRIYKPVTRLKRKQPVRK [Q13V],3.8
3,KLNCDPSRIYKPYTRLKRKQPVRK [Q13Y],3.46
4,KLNCDPSRIYKPCTRLKRKQPVRK [Q13C],3.56
5,KLNCDPSRIYKPGTRLKRKQPVRK [Q13G],3.56
6,KLCCDPSRIYKPQTRLKRKQPVRK [N3C],3.73
7,KLTCDPSRIYKPQTRLKRKQPVRK [N3T],3.96
8,KLWCDPSRIYKPQTRLKRKQPVRK [N3W],3.21
9,KLYCDPSRIYKPQTRLKRKQPVRK [N3Y],3.29
10,KLLCDPSRIYKPQTRLKRKQPVRK [N3L],3.06
11,KLVCDPSRIYKPQTRLKRKQPVRK [N3V],3.96
12,KLECDPSRIYKPQTRLKRKQPVRK [N3E],4.44
13,KLFCDPSRIYKPQTRLKRKQPVRK [N3F],3.03
14,KLRCDPSRIYKPQTRLKRKQPVRK [N3R],4.24
15,KLHCDPSRIYKPQTRLKRKQPVRK [N3H],3.75
16,KLICDPSRIYKPQTRLKRKQPVRK [N3I],2.89
17,KLGCDPSRIYKPQTRLKRKQPVRK [N3G],4.4
18,KLNCDPSRIFKPQTRLKRKQPVRK [Y10F],2.58
19,KLNCDPSRIGKPQTRLKRKQPVRK [Y10G],2.28
20,KLNCDPSRILKPQTRLKRKQPVRK [Y10L],3.84
21,KLNCDPSRIAKPQTRLKRKQPVRK [Y10A],2.92
22,KLNCDPSRIQKPQTRLKRKQPVRK [Y10Q],2.75
23,KLNCDPSRIVKPQTRLKRKQPVRK [Y10V],2.94
24,KLNCDPSRIYTPQTRLKRKQPVRK [K11T],3.2

row,Variant,protein stability index
1,KLNCDPSRIYFPQTRLKRKQPVRK [K11F],3.09
2,KLNCDPSRIYEPQTRLKRKQPVRK [K11E],4.3
3,KLNCDPSRIYHPQTRLKRKQPVRK [K11H],2.94
4,KLNCDPSRIYWPQTRLKRKQPVRK [K11W],3.3
5,KLNCDPSRIYLPQTRLKRKQPVRK [K11L],2.99
6,KLNCDPSRIYMPQTRLKRKQPVRK [K11M],3.02
7,KLNCDPSRIYNPQTRLKRKQPVRK [K11N],2.98
8,KLNCDPSRIYCPQTRLKRKQPVRK [K11C],3.9
9,KLNCDPSRIYVPQTRLKRKQPVRK [K11V],3.95
10,KLNCDPWRIYKPQTRLKRKQPVRK [S7W],3.78
11,KLNCDPERIYKPQTRLKRKQPVRK [S7E],3.53
12,KLNCDPRRIYKPQTRLKRKQPVRK [S7R],2.98
13,KLNCDPTRIYKPQTRLKRKQPVRK [S7T],3.46
14,KLNCDPPRIYKPQTRLKRKQPVRK [S7P],3.19
15,KLNCDPLRIYKPQTRLKRKQPVRK [S7L],3.73
16,KLNCDPCRIYKPQTRLKRKQPVRK [S7C],3.52
17,KLNCDPHRIYKPQTRLKRKQPVRK [S7H],3.21
18,KLNCDPVRIYKPQTRLKRKQPVRK [S7V],3.21
19,KLNCDPQRIYKPQTRLKRKQPVRK [S7Q],3.87
20,KLNKDPSRIYKPQTRLKRKQPVRK [C4K],3.58
21,KLNGDPSRIYKPQTRLKRKQPVRK [C4G],2.77
22,KLNIDPSRIYKPQTRLKRKQPVRK [C4I],2.73
23,KLNDDPSRIYKPQTRLKRKQPVRK [C4D],3.88
24,KLNHDPSRIYKPQTRLKRKQPVRK [C4H],3.5

row,Variant,protein stability index
1,KLNFDPSRIYKPQTRLKRKQPVRK [C4F],3.5
2,KLNSDPSRIYKPQTRLKRKQPVRK [C4S],3.66
3,KLNPDPSRIYKPQTRLKRKQPVRK [C4P],4.03
4,RLNCDPSRIYKPQTRLKRKQPVRK [K1R],4.11
5,GLNCDPSRIYKPQTRLKRKQPVRK [K1G],3.13
6,QLNCDPSRIYKPQTRLKRKQPVRK [K1Q],3.37
7,PLNCDPSRIYKPQTRLKRKQPVRK [K1P],3.54
8,ILNCDPSRIYKPQTRLKRKQPVRK [K1I],2.06
9,TLNCDPSRIYKPQTRLKRKQPVRK [K1T],3.87
10,FLNCDPSRIYKPQTRLKRKQPVRK [K1F],2.63
11,ALNCDPSRIYKPQTRLKRKQPVRK [K1A],4.14
12,LLNCDPSRIYKPQTRLKRKQPVRK [K1L],3.8
13,KLNCDPSRIYKPQTRLQRKQPVRK [K17Q],2.9
14,KLNCDPSRIYKPQTRLRRKQPVRK [K17R],3.18
15,KLNCDPSRIYKPQTRLLRKQPVRK [K17L],2.14
16,KLNCDPSRIYKPQTRLERKQPVRK [K17E],3.42
17,KLNCDPSRIYKPQTRLYRKQPVRK [K17Y],3.68
18,KLNCDPSRIYKPQTRLGRKQPVRK [K17G],4.14
19,KLNCDPSRIYKPQTRLCRKQPVRK [K17C],3.38
20,KLNCDPSRIYKPQTRLARKQPVRK [K17A],2.98
21,KLNCDPSRIYKPQTRLDRKQPVRK [K17D],2.17
22,KLNCDPSRIYKPQTRLFRKQPVRK [K17F],3.45
